Assay results from the nanobody polyreactivity screen of Harvey et al. (2022).

Experiment: yeast display, Sf9 membrane polyspecificity reagent, FACS + sequencing; frameworks hold sequencing errors
Outline: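 Genes from sorted yeast were amplified by colony PCR, read by MiSeq 2 × 250 sequencing and filtered on CDR length. These cells carried a synthetic nanobody library in Saccharomyces cerevisiae BJ5465 and were sorted by FACS into low and high (top ~1%) gates on anti-HA and streptavidin fluorescence. Polyreactivity is labelled according to the gate of origin.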

Row | Sequence | polyreactivity (PSR sort gate)
1 | QVQIVESGGGLVQPGGSLRLSCAASGITFYKYAMGWYRPAPGKERELLAAISKSGGRTYYADSVKGRFTISRDNAKNTVYLQMNSLKPEDTAVYYCNAQPNYAYHGEDDYWGQGNQVTVSS | high polyreactivity
2 | QVQLVESGGGLVEAGGSLRLTCAASGYIIGGNAMGWYRQAPGKERELVAVISSRGGRTYYSDSVKGRFTISRDNAKNTVYLQLNSLKPEDTEVYYCYRVFSYQYKRDYWGQGTQVTVSS | high polyreactivity
3 | QVQLVESGGGLVQAGGSLRLSCAASGSTFFRYAMGWYRQAPGKEREFVAAITWSGTGTYYADSVKGRFTISRDNAKNTVYLQMNSLKPEDTAVYYCNAEPFDLWAFYYGYVYGYYHWGQGTQVTVSS | high polyreactivity
4 | QVQLVESGGGLVQAGGSLRLSCAASGSTSTTYAMGWYRQAPWKERELVAAISWGGTRTYYADSVKGRFTISRDNAKNTVYLQMNSLKPEDTAVYYCNAGRRSSSGHYGYNYWGQGTQVTVSS | high polyreactivity
5 | QVQLVESGGGLVQAGGSLRLSCAASGIIFTYYAMGWYRQAPGKERELVARISSSGGRTYYADSVKGRFTISRDNAKNTVYLQMNSLKPEDTAVYYCNAVTTKSFHRYDYWGQGTQVTVSS | high polyreactivity
6 | QVQLVESGGGLVQAGGSLRLSCAASGRTFYRNVMGWYRQAPGKERELVAAISWSGGRTYYADSVKGRFTISRDNAKNTVYLQMNSLKPEDTAVYYCARYDRGGRHYYYWGQGTQVTVSS | high polyreactivity
7 | QVQLVESGGGLVQAGCSLRLSCAASGRIFVAITMGRYRQAPGKERELVAAITRGTNTYYADSVKGRFTISRDNAKNTVDLQMNSLKPEDSAVYYCAARLPYNAIGYYYWGHGTQVTVSS | low polyreactivity
8 | QVQLVESGGGLVQAGGSLRLSCAASGSIFEDYTMGWYRQAPGKERELVAAIDWSDASTFYADSVKGRFTISRDNAKNTVYLQMSLKPEDTAVYYCNVAIIFYDDDYWGQGTLVTVSS | high polyreactivity
9 | QVQLVESGGGLVQAGGSLRLSCAASGSIFGANAMGWYRQAPGKERELVAAISTRGGRTYYADSVKGRFTISRDNAKNTVYLQMNSLKPEDTAVYYCATSGGRPYKYEYWGQGTQVTVSS | high polyreactivity
10 | QVQLVESGGGLVQAGGSLRLICAASGRIYRYYAMGWYRQAPGKERELVAAITSDGRTYYADSVKGRFTISRDNAKNTVYLQMNSLKPEDTAVYYCAADHHSYRYGGYYYWGQGTQVTVSS | low polyreactivity
11 | QVQLVESGGGLVQAGGRLRLTCAASGSTFFTNAMGWYRQAPGKERELVAAITINDGSTFYADSVKGRFTISRDNAKKTVYLQMNSLKPEDTAVYYCNADGVDLYDFWGQGTQVTVSS | low polyreactivity
12 | QVQIVESGGGLVQAGGSLRLSCAASGFIFTAYAMGWYRPGPGKERELDAAISSSGTRTYYADSVKGRFTISRDYAKNTVYLQMNCLKPEDTAVYYCNKLYLVWNFYSGYDYSGQGTQVTVSS | high polyreactivity
13 | QVQLVESGGGLVQAGGSLRLSCAASGSIFQEYAMGWYRQAPGKERELVAAIDDSDGSTYADSVKGRFTISRDNAKTTVYLQMNSLKPDDTAVYYCNADIHATYDYWGQGTQVTVSS | low polyreactivity
14 | QVQLVESGGGLVQAGGSLRLICAASGSIFYYYAMVWYRQAPGKERELVAAISSGGSTNYADSVKGRFTISRDNAKNTVYLQMNSLKPEDTAVYYCAADYRAQYVVWYTYDYWGQGTQVTVSS | low polyreactivity
15 | QVQLVESGGGLVQAGGSLRLSCAASGSIFPSNAMGWYRQAPGKERELVAAINRDGITNYADSVKGRFTISRDNAKNTVYLQMNSLKPEDTAVYYCAAEFAWQWWEYGYWGQGTQVTVSS | low polyreactivity
16 | QVQLVESGGGIDQAGGSLRLSCAASGNTFYWYAMGWYRQAPGKERDLVAAISRGGRTNYADSVKGRFTISRDNAKNTVYLQMNSLKPEDTAVYFCAKDSNYPQPSKGWYRYDYWGLGTQVTVSS | high polyreactivity
17 | QVQLVESGGGLVQAGGSLRLSCAASRFNFDRNVSGWYRQEPGKERELVAAITGSGGRTYYADSVKGRFKISRDNAKNTVYLQMNSLKPEDTAVYYCARAFGQRRYVYWGQGTQVTVSS | high polyreactivity
